The term Kd denotes the constant that tells how readily two partners part at equilibrium.

The labels stand for the following.
B1: recombinant human PCPE-2 (procollagen C-proteinase enhancer 2) fused to a 6 Histidine-tag at the N-terminus (other)
chain: HHHHHHQSPERPVFTCGGILTGESGFIGSEGFPGVYPPNSKCTWKITVPEGKVVVLNFRFIDLESDNLCRYDFVDVYNGHANGQRIGRFCGTFRPGALVSSGNKMMVQMISDANTAGNGFMAMFSAAEPNERGDQYCGGLLDRPSGSFKTPNWPDRDYPAGVTCVWHIVAPKNQLIELKFEKFDVERDNYCRYDYVAVFNGGEVNDARRIGKYCGDSPPAPIVSERNELLIQFLSDLSLTADGFIGHYIFRPKKLPTTTEQPVTTTFPVTTGLKPTVALCQQKCRRTGTLEGNYCSSDFVLAGTVITTITRDGSLHATVSIINIYKEGNLAIQQAGKNMSARLTVVCKQCPLLRRGLNYIIMGQVGEDGRGKIMPNSFIMMFKTKNQKLLDALKNKQC
notes: Produced in HEK 293-T cells from pHLsec; Used as analyte and as immobilized ligand in SPR and in the activity assays; also called full-length PCPE-2

The target of test [1] is CPIII-Long (model substrate derived from procollagen III). The test is described as follows: cell-based or functional assay.
Test [2] deals with T1, human BMP-1 (bone morphogenetic protein-1) fused to a C-terminal Flag tag (human, UniProt P13497-2 121-730, limits assumed).
T1 construct: Produced in HEK 293-EBNA cells; also called full-length BMP-1; not shown: C-terminal Flag tag
T1 sequence (looked up): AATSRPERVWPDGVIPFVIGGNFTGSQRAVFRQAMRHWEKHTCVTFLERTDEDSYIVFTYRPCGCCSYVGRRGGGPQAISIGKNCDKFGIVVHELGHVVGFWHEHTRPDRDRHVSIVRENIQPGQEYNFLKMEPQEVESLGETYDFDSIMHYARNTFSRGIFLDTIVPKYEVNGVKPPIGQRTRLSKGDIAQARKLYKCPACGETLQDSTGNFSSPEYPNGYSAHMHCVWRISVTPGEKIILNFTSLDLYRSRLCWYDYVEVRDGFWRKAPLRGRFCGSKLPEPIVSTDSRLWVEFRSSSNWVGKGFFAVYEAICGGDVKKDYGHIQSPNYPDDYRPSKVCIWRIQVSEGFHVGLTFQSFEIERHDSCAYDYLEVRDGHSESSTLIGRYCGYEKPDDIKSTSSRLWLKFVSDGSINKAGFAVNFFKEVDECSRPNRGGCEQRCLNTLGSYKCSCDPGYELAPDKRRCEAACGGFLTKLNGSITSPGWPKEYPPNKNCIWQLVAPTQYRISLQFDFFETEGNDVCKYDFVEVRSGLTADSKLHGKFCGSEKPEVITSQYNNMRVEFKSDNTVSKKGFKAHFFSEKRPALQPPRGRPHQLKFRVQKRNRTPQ
Nature of the test: SPR, PCPE-2 1.56-100 nM over immobilized BMP-1 (974 RU), steady-state fit. For orientation: In SPR one partner is held on a chip, and binding of the other changes the refractive index at the surface.

For test [3], the target named is T1, human BMP-1 (bone morphogenetic …). The test is described as follows: inhibition of BMP-1 (7 nM) cleavage of the fluorogenic peptide Mca-YVADAPK(Dnp)-OH, Morrison equation (apparent Ki).
In test [4] the target is T2, mini-procollagen III (fused to a N-terminal c-myc tag) (UniProt P02461 1098-1466).
T2 construct: also called Mini-III; not shown: N-terminal c-myc tag
Nature of the test: SPR, CUB1CUB2* 0.78-50 nM over immobilized mini-procollagen III (435 RU).

Test [5] addresses T1, human BMP-1 (bone morphogenetic …). The test is described as follows: SPR, C1-C2* 1.56-100 nM over immobilized BMP-1 (974 RU), steady-state fit.
The target in test [6] is B1. Nature of the test: SPR, analyte over immobilized PCPE-2 (646 RU).
Test [7] deals with T1, human BMP-1 (bone morphogenetic …). Nature of the test: SPR over immobilized BMP-1.
Test [8] has as its target T2, mini-procollagen III (fused to a …). Nature of the test: SPR, analyte over immobilized mini-procollagen III (437 RU).
For test [9], the target named is T1, human BMP-1 (bone morphogenetic …). Nature of the test: SPR (Figure 65).
The target is the same in test [10]. The test is described as follows: SPR, analyte over immobilized BMP-1 (974 RU).
For test [11], the target named is T2, mini-procollagen III (fused to a …). Nature of the test: SPR, analyte over immobilized mini-procollagen III (435 RU).
Test [12] has as its target B1. Nature of the test: SPR, PCPE-2 over immobilized C-propeptide III (351 RU).

For B1, the “maximum enhancement factor of CPIII-Long processing by BMP-1 (ratios 0:1 to 6:1)” value in test [1] amounted to 1.3 fold. In test [2], this molecule yielded a Kd of 8.4 nM. Also, the Ki in test [3] amounted to 2.8 nM.

B2: CUB1CUB2* domains of PCPE-2 (other)
chain: GPASQSPERPVFTCGGILTGESGFIGSEGFPGVYPPNSKCTWKITVPEGKVVVLNFRFIDLESDNLCRYDFVDVYNGHANGQRIGRFCGTFRPGALVSSGNKMMVQMISDANTAGNGFMAMFSAAEPNERGDQYCGGLLDRPSGSFKTPNWPDRDYPAGVTCVWHIVAPKNQLIELKFEKFDVERDNYCRYDYVAVFNGGEVNDARRIGKYCGDSPPAPIVSERNELLIQFLSDLSLTADGFIGHYIFRPKLEVLFQ
notes: Two O-glycosylated forms are seen on the gel; also called C1-C2*; the CUB domains of PCPE-2
In the case of B2, the Kd in [4] is ~30 nM; in [5], 28 nM.

B3: catalytic domain of BMP-1 (enzyme, UniProt P13497 121-320, looked up)
chain: AATSRPERVWPDGVIPFVIGGNFTGSQRAVFRQAMRHWEKHTCVTFLERTDEDSYIVFTYRPCGCCSYVGRRGGGPQAISIGKNCDKFGIVVHELGHVVGFWHEHTRPDRDRHVSIVRENIQPGQEYNFLKMEPQEVESLGETYDFDSIMHYARNTFSRGIFLDTIVPKYEVNGVKPPIGQRTRLSKGDIAQARKLYKCP
notes: domain: catalytic domain; also called BMP-1cat
Regarding B3, the binding result in test [6] is on record as “no binding (tested: 50 nM)”.

B4: C2NTR (CUB2 and NTR domains of PCPE-2) (other)
chain: ETGHHHHHHCGGLLDRPSGSFKTPNWPDRDYPAGVTCVWHIVAPKNQLIELKFEKFDVERDNYCRYDYVAVFNGGEVNDARRIGKYCGDSPPAPIVSERNELLIQFLSDLSLTADGFIGHYIFRPKKLPTTTEQPVTTTFPVTTGLKPTVALCQQKCRRTGTLEGNYCSSDFVLAGTVITTITRDGSLHATVSIINIYKEGNLAIQQAGKNMSARLTVVCKQCPLLRRGLNYIIMGQVGEDGRGKIMPNSFIMMFKTKNQKLLDALKNKQC
notes: also called CUB2NTR
Consider B4, for which the binding result in test [7] is listed as “binds”.

B5: C1(R44A,F78A,R79D)-C2(L101A) (other)
chain: GPASQSPERPVFTCGGILTGESGFIGSEGFPGVYPPNSKCTWKITVPEGKVVVLNFAFIDLESDNLCRYDFVDVYNGHANGQRIGRFCGTADPGALVSSGNKMMVQMISDANTAGNGFMAMFSAAEPNERGDQYCGGLLDRPSGSFKTPNWPDRDYPAGVTCVWHIVAPKNQLIELKFEKFDVERDNYCRYDYVAVFNGGEVNDARRIGKYCGDSPPAPIVSERNELLIQFLSDASLTADGFIGHYIFRPKKLEHHHHHH
notes: also called C1-C2 with the combination of the 4 mutations
With B5, the binding result in test [8] is reported as “no binding (tested: 50 nM)”; in test [9] it was “binds”.

B6: NTR domain of PCPE-2 (other, human, UniProt Q9UKZ9 297-415, looked up)
chain: CQQKCRRTGTLEGNYCSSDFVLAGTVITTITRDGSLHATVSIINIYKEGNLAIQQAGKNMSARLTVVCKQCPLLRRGLNYIIMGQVGEDGRGKIMPNSFIMMFKTKNQKLLDALKNKQC
notes: domain: NTR
On to B6, for which the binding result in test [10] is “no binding (tested: 50 nM)”; in test [11] it was “no binding (tested: 200 nM)”.

B7: C-propeptide III (C-propeptide of procollagen III) (other, UniProt P02461 1222-1466, looked up)
chain: DEPMDFKINTDEIMTSLKSVNGQIESLISPDGSRKNPARNCRDLKFCHPELKSGEYWVDPNQGCKLDAIKVFCNMETGETCISANPLNVPRKHWWTDSSAEKKHVWFGESMDGGFQFSYGNPELPEDVLDVHLAFLRLLSSRASQNITYHCKNSIAYMDQASGNVKKALKLMGSNEGEFKAEGNSKFTYTVLEDGCTKHTGEWSKTVFEYRTRKAVRLPIVDIAPYDIGGPDQEFGVDVGPVCFL
notes: domain: C-propeptide; Described as an uncleavable substrate mimic; Immobilized in SPR (351 RU); also called C-propeptide of collagen III
As for B7, in [12], the Kd was found to be 45 nM.

These data come from EP4484444A1 (Centre National de la Recherche Scientifique, dated 2025).
